Results on 30 sequences are retold here after the nanobody polyreactivity screen of Harvey et al. (2022).

This series is described as follows: yeast display, Sf9 membrane polyspecificity reagent, FACS + sequencing; frameworks hold sequencing errors. A digest of the protocol: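 After 36–48 hours of galactose induction, yeast (Saccharomyces cerevisiae BJ5465) displaying a synthetic nanobody library were stained at 4 °C for 1 hour with 10% biotinylated, detergent-solubilized Sf9 membrane reagent. Streptavidin microbeads enriched the stained cells before FACS sorting into low and high (top ~1%) gates on anti-HA and streptavidin fluorescence. Each clone's polyreactivity label reflects its gate of origin.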
As for “QVQLVESGGGLLQAGGSLRLSCAASGSTFKFNAMGWYRQAPRKERELVAAISNRGGTTYYADSVKGRFTISRDNAKNTVYFHMNSLKPEDTAVYYCAAGRVQSYYYWGQGTQVTVSS”, the “polyreactivity (PSR sort gate)” value is reported as “high polyreactivity”.

Consider “QVQLVESVGGLVQAGGSLRLRCAASGRTFGVYAMGWYRQAAGKESEFVATITSRGGRTYSADSVKGRFTISRDNAKKTVYLQMNSLIPEDTAVYYCAAQVGRNGVSEYDYWGQGTQVTVSS”, for which the “polyreactivity (PSR sort gate)” value is given as “high polyreactivity”.

For the sequence “QVQHVESGGGLVQAGGSLRLNCAASGSTFFGNAMGWYRQAPGKERELVAAISGSGGSTYYADSVKGRFTISRDNAKNTVYLQMNSLKPEDTAVYYCAKYYLTGLARYDYWGQGTQVTVSS”, the “polyreactivity (PSR sort gate)” value is “high polyreactivity”.

With “QVQLVESGGGLVQAGGSLRLTCAASGSTFTVNGMGWYRQAPGKERELVASITWSGGSTYYADSVKGRFTISRDNAKITVYLQMNSLKPEDTAVYYCAADEKLYITGYDYWGQGTQVTVSS”, the “polyreactivity (PSR sort gate)” value is listed as “low polyreactivity”.

With “QVQLVESGGGLVQAGGSLRLSCAASGSILTDNAMGWYRQAPGKERELVASITGSGGSTYYADSVKGRFTISRDNAKNTVYLQMNSLKPEDTAVYYCAASYRLRYGYWGQGTQVTVSS”, the “polyreactivity (PSR sort gate)” value is given as “high polyreactivity”.

With “QVQLVESGGGLVQAGCSLRLSCAASGFTFYYNAMGWYRQAPGKERDLVAAISISGASTYYADSVKGRFTISRDNAKNTVYLQMNSLKPEDTAVFYCAKRTKGYTYHHEYGYWGQGTQVTVSS”, the “polyreactivity (PSR sort gate)” value is given as “low polyreactivity”.

Consider “QVQLVESGGGLVQAGGSLRLICAASGSTFYSNAMGWYRQAPGKERELVAAINYSGGGTYYADSVKGRFTISRDNAKNTVYLQMNSLKPEDTAVYYCAADGSYVHWEYGYWGQGTQVTVSS”, for which the “polyreactivity (PSR sort gate)” value was “low polyreactivity”.

In the case of “QVQLVESGGGLVQAGGSLRLSCAASGRIYWNTMGWYRQAPGKERQLVASISTGGGRTYYADSVKGRFTISRDNAKNTVYLQMNSLKPEDTAVYYCAARRGAGYSRFNYWGQGTQVTVSS”, the “polyreactivity (PSR sort gate)” value is “high polyreactivity”.

“QVQLVESGGGLVQAGGSLRLSCAASGRTFYRYAMGWYRQAPGKERELVAAISTRGGTTYYADSVKGRFTISRDNAKNTVYLQMNSLKPEDTAVYYCAADSVYAEDDSWGQGTQVTVSS”: the “polyreactivity (PSR sort gate)” value is “low polyreactivity”.

Turning to “QVQLVESGGGLVQAGGSLRLSCAASGFIFNYYAMGWYRQAPGKEREFVAAITWRGGSTNYADSVKGRFTISRDNAKNTVYLQMNSLKPEETAVYYCAAYSVWGGSYLALDYWGQGTQVTVSS”, the “polyreactivity (PSR sort gate)” value is given as “low polyreactivity”.

For “QVQLQESGADLEQAGGSLRLSFTASGTISDVRVMAWYRQAPGKERELVATISYVTITYYADSVKGRFTISRDSEKHRVSADDEPETGRYRGVLLRYYWGLGTQVTVSS”, the “polyreactivity (PSR sort gate)” value is recorded as “low polyreactivity”.

Take “QVQLVESGGGLVQAGGSLRLSCAASGRTFLRYTMGWYRQAPGKERELVAAITYSGGSTYYADSVKGRFTISRDNAKNTVYLQMNSLKPEDTAVYYCAASYLWGYTEYYYWGQGTQVTVSS”: the “polyreactivity (PSR sort gate)” value is “high polyreactivity”.

“QVQLVESGGGLVQAGGSLRLSCAASGITFAENAMGWFRQAPGKERELVAAISGSGVDTYYADSVKGRFTISRDNAKNPVYLQMNSVKPEDTAVYYSNAVYYRSSYPSGRYGMDYWGQGTQVTVSS”: the “polyreactivity (PSR sort gate)” value is “high polyreactivity”.

As to “QVQLVESGGGLVQAGGSLRLSCAASGSIFYVYAMGWYRQAPGKERELVAAISRRGARTYYADSVKGRFTISRDTAKYPVYLQMNSLQPEDTAVYYCNADQYSTVGYSAEYEYWGHGTQVTVSS”, the “polyreactivity (PSR sort gate)” value was “low polyreactivity”.

Take “QVQLVESGGGLVQAGGSLRLSCAASGFTFTYNTMGWYRQAPGKEREMVAAISSTGGSTYYADSVKGRFTISRDNAKNTVYLQMNSLKPEDTAVYYCNACLPFSGRKRYGYWGQGTQVTVSS”: the “polyreactivity (PSR sort gate)” value is “high polyreactivity”.

On to “QVHLVESGGGLDQAGGSLRLSSAASGFTFQKYAMGWYRQAPGTERELVAAISSSGGRTYYADSLNGRFTISRDNAKITVYLQMNSLKPEDTAVYYCAVRGSYRGWYDYWGQGTQVTVSS”, for which the “polyreactivity (PSR sort gate)” value is on record as “high polyreactivity”.

As for “QVQLVESGGGLVQAGGSLRLSCAASGSTFQIYAMGWYRQAPGNERELVAAITSSSSTNYADSVKGRFTISRDNAKNTVYLQMNSLKPEDTAVYYCAADVSWRSNWYDYWGQGTQVTVSS”, the “polyreactivity (PSR sort gate)” value was “low polyreactivity”.

“QVQLVESGGGLVQAGGSLPLSCAASGRTIDHYAMGWYRQAPGKERELVAAITSGGSTYYADSVKGRFTISRDNAKNTVYLQMNSLKPEDTAVYYCNKDSSFWGYYIAQVNERDYWGQGTQVTVSS”: the “polyreactivity (PSR sort gate)” value was “low polyreactivity”.

Regarding “QVQLVESGGGLVQAGGSLRLSCAASGRIFPSYAMGWYRQAPGKERELVAAISYSGASTYYADSVKGRFTFSRDNAKNTVYLQMNSLKPEDTAVYYCNAESGPKYYWGYAGTFDYWGQGTQVTVSS”, the “polyreactivity (PSR sort gate)” value is listed as “low polyreactivity”.

Consider “QVQLVESGGGLVQAGGSLRLTCAASGRIFSYNAMGWYRQAPGKERELVAAITGGGSTNYADSVKGRFTISRDNAKNTVFLQMNSLKPEDTAVYYCAARSWSYKYWGQGTQVTVSS”, for which the “polyreactivity (PSR sort gate)” value is “high polyreactivity”.

Regarding “QVQLVESGGGLLQAGGSLRVSCAASGFIFVLYAMGWYRQAPGKERELVAAITWSTGCTYYADSVKGRFTISRDNAKNTVYLHMNSLKPEDTAVYYCSADQYIFGIWFDYWGQGTQVTVSS”, the “polyreactivity (PSR sort gate)” value is recorded as “high polyreactivity”.

Regarding “QVQLVESGGGLVQAGGSLRLSCAASGRIFGGYDMGWYRQAPGKERELVAAMTSDSSTTYADSVKGRFTISRDNAKNTVYLQMNSLKPEDTAVYYCAVQVNGPVFYRPYLDYDYWGQGTQVTVSS”, the “polyreactivity (PSR sort gate)” value is given as “low polyreactivity”.

As for “QVQRVESGGGLVQAGGRLRLSSAASGSIFGRYGMGWYRQAPGKDRELVAAITSGTRRNYADSVKGRFTISRDNAKNTVYLQMNSLKPEDTAVYYCNAVRLRGNYEYGYWGLGTQVTVSS”, the “polyreactivity (PSR sort gate)” value is listed as “low polyreactivity”.

As for “QVQLVESGGGLVQAGGSLRLSCAASGSTFYRYAMGWYRQAPGKERELVAAISSGGRTYYADSVKGRFTISRDNAKNTVYLQMNSLKPEDTAVYYCATSWTFRQGYNYWGQGTQVTVSS”, the “polyreactivity (PSR sort gate)” value was “high polyreactivity”.

Turning to “QVQLVESGGGLVQAGGSLRLSCAASGRTFRYYAMGWYRQAPGKERELVAAISASGGSTFYADSVKGRFTISRDNAKNTVYLLMNSLKPEDTAVYYCAAYHYSVFPYKQYDYWGQGTQVTVSS”, the “polyreactivity (PSR sort gate)” value is “high polyreactivity”.

“QVQLVESGGGLVQAGGSLRLSCAASGRIFGYYAMGWYRQAPGKERELVAAINWRGGNTNYADSVKGRFTISRDNAKNTVYLQMNSLKPEDTSVYYCNAQVLVRPIQGEYGYWGQGTQVTVSS”: the “polyreactivity (PSR sort gate)” value is given as “low polyreactivity”.

As to “QVQLVESGGGLVQAGGSLSLSCAASGSTFVGYAMGWYRQAPGKEREFVAAITRGGSTNYADSVKGRFTISRDNAKNTVYLQMNSLNPEDTAVYYCAARDRREGFNFDYWGQGTQVTVSS”, the “polyreactivity (PSR sort gate)” value was “low polyreactivity”.

Take “QVQLVESGGGLVQAGGSLRLSCAASGLILDGYAMGWYRQAPGKERELVAAITRSGGRTYYADSVKGRFTISRDNAKNTVYLQMNSLKPEDTAVYYCAALGWSGRYSYDYWGQGTQVTVSS”: the “polyreactivity (PSR sort gate)” value was “high polyreactivity”.

“QVQLVESGGGLVQAGGSLRLSCAASGFTFYPYTMGWYRQAPGKERELVAAISSSGGSTYYADSVKGRFTISRDNAKNTVYLQMNSLKPEDTAVYYCNKYQRNWFSRAPMDYWGQGTQVTVSS”: the “polyreactivity (PSR sort gate)” value is “high polyreactivity”.

As for “QVQLVESGGGLVQAGGSLRLSCGASGFTFSGNVMGWYRQAPGKEREFVAAITSRGGSSYYADSVKGRFTISRDNAKNTVYLQMNSLKPEDTAVYYCNRRRWYFFSLDYWGQGTQVTVSS”, the “polyreactivity (PSR sort gate)” value is reported as “high polyreactivity”.
